Experimental findings from the supplement of paper PMC9116672 are described below.

± gives the standard deviation of the averaged measurements or the uncertainty stated by the source.

Data set [1] in a line: duplex formation free energy ΔG50 (Van't Hoff fit of HRM Tm); higher = less stable duplex. The note with it: temperature for dG: 50 °C, NaCl: 500 mM (unadjusted). As to the method: (§1)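 Duplex of the listed DNA strand with its complement, in 1x NNE buffer (500 mM NaCl, pH 7.0) with 1x EvaGreen. ΔH and ΔS come from a Van't Hoff linear fit of 1/Tm against ln(CT/4) over 1-20 uM, using HRM Tm values.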

A short description of data set [2]: duplex melting temperature (HRM, EvaGreen); higher = more stable duplex. The procedure:
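Listed DNA strand annealed 1:1 with its complementary strand (95 °C 5 min, 0.1 °C/s to 20 °C). Melted in 1x NNE buffer (500 mM NaCl, 10 mM Na2HPO4, 1 mM EDTA, pH 7.0) with 1x EvaGreen on a LightCycler96 (37 to 97 °C, 0.1 °C/s). Tm is the peak of -dF/dT at the stated total duplex concentration; 4 replicates are averaged. PS oligos are non-stereospecific (Rp/Sp mixtures).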

Data set [3] is described as follows: duplex formation enthalpy ΔH (Van't Hoff fit of HRM Tm); higher = less exothermic duplex formation. The following applies: temperature for dG: 50 °C, NaCl: 500 mM (unadjusted). The procedure: as §1
The nature of data set [4]: duplex formation entropy ΔS (Van't Hoff fit of HRM Tm); higher = smaller entropy loss on duplex formation. The following applies: temperature for dG: 50 °C, NaCl: 500 mM (unadjusted). The procedure:
as §1

The mark [5] stands for this setting: backbone: PO-PO (both strands phosphodiester DNA).
Where [6] appears, read: backbone: PS-PO (listed strand fully phosphorothioate, complement phosphodiester).
Setting [7] is: backbone: PS-PS (both strands fully phosphorothioate).
Where [8] appears, read: duplex concentration 1 µM, backbone: PS-PO (listed strand fully phosphorothioate, complement phosphodiester).
[9] abbreviates: duplex concentration 1 µM, backbone: PS-PS (both strands fully phosphorothioate).
Setting [10] is: duplex concentration 2.5 µM, backbone: PO-PO (both strands phosphodiester DNA).
The mark [11] stands for this setting: duplex concentration 2.5 µM, backbone: PS-PO (listed strand fully phosphorothioate, complement phosphodiester).
The mark [12] stands for this setting: duplex concentration 2.5 µM, backbone: PS-PS (both strands fully phosphorothioate).
The mark [13] stands for this setting: duplex concentration 5 µM, backbone: PO-PO (both strands phosphodiester DNA).
Where [14] appears, read: duplex concentration 5 µM, backbone: PS-PO (listed strand fully phosphorothioate, complement phosphodiester).
Where [15] appears, read: duplex concentration 5 µM, backbone: PS-PS (both strands fully phosphorothioate).
Where [16] appears, read: duplex concentration 7.5 µM, backbone: PO-PO (both strands phosphodiester DNA).
The mark [17] stands for this setting: duplex concentration 7.5 µM, backbone: PS-PO (listed strand fully phosphorothioate, complement phosphodiester).
Setting [18] is: duplex concentration 7.5 µM, backbone: PS-PS (both strands fully phosphorothioate).
Where [19] appears, read: duplex concentration 10 µM, backbone: PO-PO (both strands phosphodiester DNA).
Where [20] appears, read: duplex concentration 10 µM, backbone: PS-PO (listed strand fully phosphorothioate, complement phosphodiester).
Setting [21] is: duplex concentration 10 µM, backbone: PS-PS (both strands fully phosphorothioate).
Setting [22] is: duplex concentration 15 µM, backbone: PO-PO (both strands phosphodiester DNA).
The mark [23] stands for this setting: duplex concentration 15 µM, backbone: PS-PO (listed strand fully phosphorothioate, complement phosphodiester).
[24] abbreviates: duplex concentration 15 µM, backbone: PS-PS (both strands fully phosphorothioate).
Where [25] appears, read: duplex concentration 20 µM, backbone: PO-PO (both strands phosphodiester DNA).
Where [26] appears, read: duplex concentration 20 µM, backbone: PS-PO (listed strand fully phosphorothioate, complement phosphodiester).
The mark [27] stands for this setting: duplex concentration 20 µM, backbone: PS-PS (both strands fully phosphorothioate).

For CACAGCGACATGTATGG, the “duplex formation free energy ΔG50” value is -13.7 ± 0.16 kcal/mol in data set [1] (setting [5]), -12.06 ± 0.059 kcal/mol in data set [1] (setting [6]) and -10.12 ± 0.071 kcal/mol in data set [1] (setting [7]). Also, the duplex melting temperature in data set [2] (duplex concentration 1 µM, backbone: PO-PO (both strands phosphodiester DNA)) is 66.351 ± 0.017 °C; in data set [2] (setting [8]) it was 59.17 ± 0.49 °C; in data set [2] (setting [9]), 51.1 ± 0.65 °C; in data set [2] (setting [10]) it was 68.17 ± 0.38 °C; in data set [2] (setting [11]), 61.71 ± 0.23 °C; in data set [2] (setting [12]), 54.15 ± 0.059 °C. Moreover, the duplex melting temperature amounted to 70.03 ± 0.34 °C in data set [2] (setting [13]); 63.56 ± 0.32 °C in data set [2] (setting [14]); 56.02 ± 0.1 °C in data set [2] (setting [15]); 71.11 ± 0.17 °C in data set [2] (setting [16]); 64.61 ± 0.28 °C in data set [2] (setting [17]); 56.91 ± 0.12 °C in data set [2] (setting [18]). Besides, the duplex melting temperature worked out at 72.07 ± 0.21 °C in data set [2] (setting [19]); 65.347 ± 0.065 °C in data set [2] (setting [20]); 57.68 ± 0.091 °C in data set [2] (setting [21]); 73.27 ± 0.14 °C in data set [2] (setting [22]); 66.45 ± 0.11 °C in data set [2] (setting [23]); 58.539 ± 0.051 °C in data set [2] (setting [24]). Also, the duplex melting temperature in data set [2] (setting [25]) was 74.18 ± 0.2 °C; in data set [2] (setting [26]), 67.43 ± 0.1 °C; in data set [2] (setting [27]), 59.3 ± 0.12 °C. Moreover, the “duplex formation enthalpy ΔH” value in data set [3] (setting [5]) is -84.1 ± 2.5 kcal/mol; in data set [3] (setting [6]), -83.1 ± 1.4 kcal/mol; in data set [3] (setting [7]), -80 ± 3.5 kcal/mol. Also, the “duplex formation entropy ΔS” value was -218 ± 7.4 cal/mol/K in data set [4] (setting [5]), -220 ± 4.1 cal/mol/K in data set [4] (setting [6]) and -216 ± 10 cal/mol/K in data set [4] (setting [7]).
Turning to CCACTAGCGGCGCCGTT, the “duplex formation free energy ΔG50” value in data set [1] (setting [5]) was -17 ± 0.36 kcal/mol; in data set [1] (setting [6]), -13.7 ± 0.17 kcal/mol; in data set [1] (setting [7]), -12.8 ± 0.097 kcal/mol. Further, the duplex melting temperature in data set [2] (setting [8]) amounted to 67.57 ± 0.56 °C; in data set [2] (setting [9]), 62.65 ± 0.14 °C; in data set [2] (setting [10]), 78.31 ± 0.24 °C; in data set [2] (setting [11]), 70.82 ± 0.38 °C; in data set [2] (setting [12]), 65.52 ± 0.13 °C; in data set [2] (setting [13]), 80.05 ± 0.14 °C. Also, the duplex melting temperature was determined as 73 ± 0.26 °C in data set [2] (setting [14]); 67.54 ± 0.18 °C in data set [2] (setting [15]); 81.18 ± 0.29 °C in data set [2] (setting [16]); 74.33 ± 0.2 °C in data set [2] (setting [17]); 68.59 ± 0.13 °C in data set [2] (setting [18]); 81.87 ± 0.19 °C in data set [2] (setting [19]). For the same sequence, the duplex melting temperature in data set [2] (setting [20]) came to 75.285 ± 0.053 °C; in data set [2] (setting [21]), 69.501 ± 0.06 °C; in data set [2] (setting [22]) it was 83.03 ± 0.12 °C; in data set [2] (setting [23]), 76.37 ± 0.18 °C; in data set [2] (setting [24]), 70.49 ± 0.094 °C; in data set [2] (setting [25]) it was 83.58 ± 0.28 °C. In addition, the duplex melting temperature in data set [2] (setting [26]) came out at 77.3 ± 0.13 °C; in data set [2] (setting [27]) it was 71.36 ± 0.16 °C. Also, the “duplex formation enthalpy ΔH” value is -97 ± 4 kcal/mol in data set [3] (setting [5]), -75.1 ± 2.5 kcal/mol in data set [3] (setting [6]) and -79.8 ± 1.8 kcal/mol in data set [3] (setting [7]). Further, the “duplex formation entropy ΔS” value is -247 ± 11 cal/mol/K in data set [4] (setting [5]), -190 ± 7.2 cal/mol/K in data set [4] (setting [6]) and -207 ± 5.3 cal/mol/K in data set [4] (setting [7]).
With CGGCGCGCTG, the duplex melting temperature was 44.8 ± 1.1 °C in data set [2] (setting [9]); 66.4 °C in data set [2] (setting [10]); 47 ± 1.1 °C in data set [2] (setting [12]); 67.7 ± 0.9 °C in data set [2] (setting [13]); 64.9 ± 1.3 °C in data set [2] (setting [14]); 50 ± 1.2 °C in data set [2] (setting [15]). Further, the duplex melting temperature stood at 69.25 ± 0.52 °C in data set [2] (setting [16]); 66.2 ± 0.84 °C in data set [2] (setting [17]); 70.35 ± 0.13 °C in data set [2] (setting [19]); 67.43 ± 0.12 °C in data set [2] (setting [20]); 70.84 ± 0.39 °C in data set [2] (setting [22]); 68.41 ± 0.079 °C in data set [2] (setting [23]). Also, the duplex melting temperature turned out to be 72.07 ± 0.61 °C in data set [2] (setting [25]) and 69.27 ± 0.21 °C in data set [2] (setting [26]).
For the sequence GGACGGCGTT, the duplex melting temperature in data set [2] (setting [9]) was found to be 39.971 ± 0.0066 °C; in data set [2] (setting [12]) it was 43 ± 0.68 °C; in data set [2] (setting [15]), 47.59 ± 0.14 °C; in data set [2] (setting [18]), 50.3 ± 1.2 °C; in data set [2] (setting [19]), 63.65 ± 0.51 °C; in data set [2] (setting [21]), 50.8 ± 1.5 °C. Besides, the duplex melting temperature was 64.94 ± 0.51 °C in data set [2] (setting [22]); 61.1 ± 0.49 °C in data set [2] (setting [23]); 53.7 ± 0.47 °C in data set [2] (setting [24]); 65.94 ± 0.2 °C in data set [2] (setting [25]); 62.78 ± 0.33 °C in data set [2] (setting [26]); 53.7 °C in data set [2] (setting [27]).
